Laboratory results: patent publication US20200123558A1 (UNIVERSITY OF SASKATCHEWAN AND NATIONAL RESEARCH COUNCIL OF …, published 2020)
Where two headings read alike, the source gives them in different places. Values belong to the binder of their own block, whether it stands above or below them.

Key:
Assay in all cases: yeast 2-hybrid
[1] = biological target: T1, Apc5 (yeast, UniProt Q08683 1-685, limits assumed)
T1 construct: Expressed as a Y2H bait fusion; also called Apc5 bait
T1 sequence (looked up): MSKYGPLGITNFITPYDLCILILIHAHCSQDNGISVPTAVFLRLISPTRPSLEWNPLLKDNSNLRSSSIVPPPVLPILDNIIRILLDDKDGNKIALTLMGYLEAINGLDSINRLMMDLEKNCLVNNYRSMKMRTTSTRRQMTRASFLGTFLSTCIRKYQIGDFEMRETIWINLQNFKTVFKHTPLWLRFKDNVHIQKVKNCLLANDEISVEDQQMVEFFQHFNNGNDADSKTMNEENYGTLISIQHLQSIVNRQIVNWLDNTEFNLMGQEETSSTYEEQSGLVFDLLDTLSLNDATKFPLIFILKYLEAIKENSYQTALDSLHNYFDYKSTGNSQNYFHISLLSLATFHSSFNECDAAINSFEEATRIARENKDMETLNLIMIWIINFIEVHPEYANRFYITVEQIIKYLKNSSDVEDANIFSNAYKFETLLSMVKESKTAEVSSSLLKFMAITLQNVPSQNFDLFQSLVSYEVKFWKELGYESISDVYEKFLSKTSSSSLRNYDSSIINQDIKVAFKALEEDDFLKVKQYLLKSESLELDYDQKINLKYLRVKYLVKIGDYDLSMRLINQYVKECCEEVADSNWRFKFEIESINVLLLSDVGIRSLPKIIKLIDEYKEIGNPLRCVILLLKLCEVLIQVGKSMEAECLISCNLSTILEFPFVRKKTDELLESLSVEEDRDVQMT

[2] = biological target: T2, Apc10 (yeast, UniProt P53068 1-250, limits assumed)
T2 construct: Expressed as a Y2H bait fusion; also called yeast Apc10 APC subunit; Apc10 bait
T2 sequence (looked up): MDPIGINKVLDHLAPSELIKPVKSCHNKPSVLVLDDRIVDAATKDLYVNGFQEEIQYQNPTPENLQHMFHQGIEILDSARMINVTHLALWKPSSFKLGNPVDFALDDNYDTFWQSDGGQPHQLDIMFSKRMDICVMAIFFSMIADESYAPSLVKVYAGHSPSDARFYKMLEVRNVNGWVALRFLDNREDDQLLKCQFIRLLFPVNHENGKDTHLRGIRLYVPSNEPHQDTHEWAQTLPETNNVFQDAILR

[3] = biological target: T2, Apc10; remark: listed apart in the source

B1: peptide C2-4B (peptide)
peptide: RMPQWWQWMWV
modifications: Shown as the variable loop of the Trx scaffold on a Y2H prey vector. The letters do not carry this.
notes: also called 11-3; C2-4B aptamer; not shown: TrxA scaffold and Y2H fusion domain
binding result [1]: binds

B2: peptide 24-1 (peptide)
peptide: SKWTWRMCMSWTVDRFAPVPWP
modifications: Displayed in the assay as the variable loop of a TrxA scaffold fused to a Y2H prey domain; carrier not written.
notes: not shown: TrxA (thioredoxin) scaffold halves flanking the loop and the Y2H prey fusion domain
binding result [1]: binds

B3: peptide 1-8 (peptide)
peptide: GRMLMTYLMYFMVLWVPRPWGPPL
modifications: Displayed in the assay as the variable loop of a TrxA scaffold fused to a Y2H prey domain; carrier not written.
notes: as for B2
binding result [2]: binds

B5: peptide C43-4 (peptide)
peptide: NGSSHNDLRVRRLTLISRLC
modifications: Shown in the assay as the variable loop of a Trx scaffold fused to a Y2H prey domain. The letters do not carry this.
notes: also called C43-4 aptamer; Htz1-like peptide; not shown: Thioredoxin (TrxA) scaffold flanking the loop and the Y2H prey fusion domain
binding result [2]: binds

The remaining lines, values ahead:

binding result [2]: binds
B4: peptide 50-1 (peptide)
peptide: RRCLSIRTENLAWEGKFLRV
modifications: Displayed in the assay as the variable loop of a TrxA scaffold fused to a Y2H prey domain; carrier not written.
notes: as for B2

binding result [3]: binds
B6: peptide C43-4-3 (peptide, not shown: large carriers)
peptide: NGSSHNDARVRRLTLISRLC
modifications: Presumably shown in the Trx scaffold like its parent. The letters do not carry this.
notes: C43-4 with leucine 8 replaced by alanine; also called C43-L8A
